Measurements taken from the nanobody polyreactivity screen of Harvey et al. (2022).

Assay: yeast display, Sf9 membrane polyspecificity reagent, FACS + sequencing; frameworks hold sequencing errors
Outline: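 In a synthetic yeast display library (Saccharomyces cerevisiae BJ5465), nanobody expression was induced with galactose for 36–48 hours. FACS gates were set low and high (top ~1%) using anti-HA fluorescence for expression and streptavidin fluorescence for binding of the Sf9 membrane reagent. Each polyreactivity label is drawn from the gate of origin.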

Sequence	polyreactivity (PSR sort gate)
QVQLVESGGGLVQAGGSLRLSCAASGSIFVVYAMGWYRQAPGKERELVAVITDDGSTYYADSVKGRFTISRDNAKNTVYLQMNSLKPEDTAVYYCAAEGAATPDFGSWYYYWGQGTQVTVSS	low polyreactivity
HVQLVDSGGGIVQAGGSLRLSCAASGSTFYGNAMGWYRQAPGKEMEFVAAISRGGGSTYYADSVKGRFTISRDNAKNTVYVQMNLLKTEDTADFYCAATRYLHPWYYQYYYCGQGTQVTVSS	low polyreactivity
QVQLVESGGGLVQAGGSLRLSCAASGSTFDGNAKGWYRQAPGKERELVATINSGSSTNYADSVKGRFTISRDNAKNTVYLQMISLKPEDTAVFYCNVDSGSDSLVYSVRYNYWGQGTQVTVSS	low polyreactivity
QVQLVESGGGLVQAGGSLRLSCAASGSILPRYVMGSYRQAPAKETELVAAISQSGGSTYYADTVKARFTISRDNAKNTVYLQMNRLKPEDTAVYYCAAEVRGWRVDYYYWGQGTQVTVSS	high polyreactivity
QVQLVESGGGLVQAGCSLRLSCAASGSTFSYIAMGWYRQAPGKERELVAAITSGSSTNYADSVKGRFTISRDNAKYTVYLQMNSLKPEDTAVSYCAADGYQDKYYWLETWVGYWGHGTQVTVSS	low polyreactivity
QVQLVESGGVLVQGRGSLRLSCDASGFTYYTNDMGWYRQAPWKERELVAAINSGGSTKYADSVKGRFPISRDNAKNTVYEQMNSLKPEETAVYYCNRDDNRKHSFGSVGYDYWGQGHQVTVSS	low polyreactivity
QVQLVESGGGLVQAGGSLRLSCAASGRTFARYAMGWYRQAPGKERELVAAITRRGGSTYYADSVKGRFTISRDNAQNTVYLQMNSLKPEDTAVYYCAVPWYTRESGAYDYWGQGTQVTVSS	high polyreactivity
QVQLVESGGGLVQAGGSLRLSCAASGYTFRVYTMGWYRQAPGKERELVAAISRRGSRTYYADSVKGRFTISRDNAKNTVYLQMNSLKPEDTAVYYCAAGIPYPDDYWGQGTQVTVSS	high polyreactivity
QVHLEESGGGLVQAGGSLRLRCAASGFTFGHYTMGWYRQAPGKERELVAAITWRGGTYYADSVKGRFTISRDNAKNTVYLQMNSLKPEDTAVYYCNARFGQTVKGTYGRYYYWGQGTQVTVSS	high polyreactivity
QVPLVESGGGLVQAGGSLRLSCAASGRTFGIYAMGWYRQEPGKERELVATISWRGGSTNYADSVKGRFTISRDNAKNTVYLQMNSLKPEDTAVYYCAADPCGFGYPYLTRGTDGYDYWGQGTQVTVSS	low polyreactivity
QVQLVESGGGLVQAGGSLRLSCAASGSTFASNVMGWYRQAPGKERELVAAITRGDRTHYAHSVKGRFTISRDNAKNTVYLQMNSLKPEDPAVYYCAKVTTLGRSRDYWGQGTQVTVSS	low polyreactivity
QVQLVESGGGLVQAGGSLRLSCAASGSIFTPNVMGWYRQEPGKERELVAAISQRGGSTYYADSVKGRFTLSRDNAKNTVYLQMNSLKPEDTAVYYCNKDNAVDRLPWFQVTYDYWGQGTQVTVSS	low polyreactivity
QVQLVESGGGLVQAGGSLRLSCAASGFIFVIYGMGWYRQAPGKERELVAAISRGGSTYADSVKGRFTISRDNAKNTVYLQMNSLKPEDTAVYYCNARLYKRGGFGYYYWGQGTQVTVSS	high polyreactivity
QVQLVESGGGLVQAGGSHRLSCAASGRIFKIYAMGWYRQAPGKERELVAAISRGGRTYYADSVKGRFTISRDNAMYTFYLLLNSLTPEDTAVYYCNLYAPDTYGINGYWGQGTQVSVSS	high polyreactivity
QVQLVESGGGLVQAGGSLRLSCAASGRTFIYYAMGWYRQAPGKERELVAAITYSGTSTYYADAVKGRFTISRDNAKNTVYLQMNSLKPEDTAVYYCAKDGQRDAKYNWGQGTQVTVSS	low polyreactivity
QVQQQESGGGLVQAGGSLRLSCAASGNTSDTGYMGWYRQAPGKERKVVASIDYGSNTYYADSVKVRFTISRDNAKNTVYLQMNSLKPEDTAVYYCAAYYIGDYTLVYWGQGTQVTVSS	high polyreactivity
QVQLVESGGGLVQAGGSLRLSCAASGSTFRIYAMGWYRQQHGKESEFVAAITGGGTHYADSVKGRFTISRDNAKNTVYLQMNRLKPEDTAVYFCAAGYFIRTLSRYRYDYWGQGTQVTVSS	high polyreactivity
